From paper PMC5087658, “Essential role of the Dishevelled DEP domain in a Wnt-dependent human-cell-based complementation assay” (Journal of Cell Science, 2016)
Residue numbers refer to the chain shown, from its start. Names may count otherwise. “And” between values parts separate entries of the source, which are not always exact repeats. Equal entries are not always repeated. Blank lines part the entries; values can stand above or below the molecule they belong to.

How the values were obtained:
[1] = target: SNAP–FZD5 (UniProt Q13467); experiment: FZD5-dependent recruitment of DEP-GFP to the plasma membrane, cells scored by fluorescence microscopy; settings: HEK293T cells, 100 cells scored in each case, read off a plot; for other: % of cells with no FZD5 recruitment: parent: est. 12; for other: % of cells with weak FZD5 recruitment: parent: est. 36; for other: % of cells with strong FZD5 recruitment: parent: est. 52
[2] = target: the molecule itself; experiment: SEC-MALS; phosphate-buffered saline, GE Superdex S-200 10/300 analytical column; unfractionated purified Lip–DEP
[3] = target: the molecule itself; experiment: SEC-MALS; not shown; tetramerisation of the K446M DEP domain
[4] = target: T1, DVL2 PDZ domain (PDZ_(265-361)), wt, 15N-labelled (human, UniProt O14641 265-361, 15N-labelled); experiment: NMR titration; 1H-15N correlation spectra (fast-HSQC or BEST-TROSY) of 100 µM 15N-PDZ alone or with 3x molar excess (300 µM) of DVL-C or Lip–FZD peptide; 298 K, aqueous phosphate buffer at physiological ionic strength, pH 6.7; settings: both partners purified
T1 construct: Dishevelled 2 (DVL2), human, PDZ domain, residues 265-361; Tag was followed by the linker ENLYFQS (TEV site); also called wt 15N-PDZ; minimal PDZ domain of DVL2; source: E. coli BL21-CodonPlus(DE3)-RIL, purified (NiNTA), Lip tag cleaved with TEV protease; not shown: His6, N-terminal, cleaved; Lip, N-terminal, cleaved
T1 sequence (looked up): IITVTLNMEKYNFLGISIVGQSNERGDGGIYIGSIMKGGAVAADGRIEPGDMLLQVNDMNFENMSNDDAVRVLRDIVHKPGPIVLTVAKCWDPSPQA

SNAP–FZD5, sequence (Q13467 27-585): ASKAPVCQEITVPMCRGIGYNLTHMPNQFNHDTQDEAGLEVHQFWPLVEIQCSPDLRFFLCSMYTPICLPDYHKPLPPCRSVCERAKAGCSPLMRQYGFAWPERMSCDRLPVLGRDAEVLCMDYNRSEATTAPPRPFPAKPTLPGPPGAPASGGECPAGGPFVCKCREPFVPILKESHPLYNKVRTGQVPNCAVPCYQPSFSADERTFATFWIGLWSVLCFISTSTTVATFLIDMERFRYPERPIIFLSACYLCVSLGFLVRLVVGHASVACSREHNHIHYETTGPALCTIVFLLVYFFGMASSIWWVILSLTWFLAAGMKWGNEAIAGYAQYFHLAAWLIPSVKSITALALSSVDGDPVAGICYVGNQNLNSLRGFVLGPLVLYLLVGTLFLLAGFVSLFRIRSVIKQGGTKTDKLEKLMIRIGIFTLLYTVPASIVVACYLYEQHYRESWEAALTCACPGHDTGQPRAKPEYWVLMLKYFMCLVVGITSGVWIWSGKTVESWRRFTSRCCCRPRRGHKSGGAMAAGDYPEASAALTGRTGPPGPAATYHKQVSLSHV

other: % of cells with no FZD5 recruitment [1]: 75 % of cells | other: % of cells with weak FZD5 recruitment [1]: 22 % of cells | other: % of cells with strong FZD5 recruitment [1]: 3 % of cells
Molecule: DEP–GFP, wt (minimal DEP domain of DVL2) (from UniProt O14641) K446M

other: % of cells with no FZD5 recruitment [1]: 80 % of cells | other: % of cells with weak FZD5 recruitment [1]: 20 % of cells
Molecule: DEP–GFP, wt (minimal DEP domain of DVL2) (from UniProt O14641) L445E

other: % of cells with no FZD5 recruitment [1]: 7 % of cells | other: % of cells with weak FZD5 recruitment [1]: 32 % of cells | other: % of cells with strong FZD5 recruitment [1]: 61 % of cells
Molecule: DEP–GFP, wt (minimal DEP domain of DVL2) (from UniProt O14641) I447T

other: % of cells with no FZD5 recruitment [1]: 7 % of cells | other: % of cells with weak FZD5 recruitment [1]: 41 % of cells | other: % of cells with strong FZD5 recruitment [1]: 52 % of cells
Molecule: DEP–GFP, wt (minimal DEP domain of DVL2) (from UniProt O14641) I447M

other: % of cells with no FZD5 recruitment [1]: 8 % of cells | other: % of cells with weak FZD5 recruitment [1]: 34 % of cells | other: % of cells with strong FZD5 recruitment [1]: 58 % of cells
Molecule: DEP–GFP, wt (minimal DEP domain of DVL2) (from UniProt O14641) I447F

B1: Lip–DEP_(417-511), DVL2 DEP domain, wt (domain or fragment, human, UniProt O14641 417-511, looked up)
chain: LSVHTDMASVTKAMAAPESGLEVRDRMWLKITIPNAFLGSDVVDWLYHHVEGFPERREARKYASGLLKAGLIRHTVNKITFSEQCYYVFGDLSGG
notes: Dishevelled 2 (DVL2), human, DEP domain, residues 417-511; Between the 6xHis-Lip tag and the domain stands the linker ENLYFQS (TEV site); also called wt DEP domain; DVL2 DEP_(417-511); source: E. coli BL21-CodonPlus(DE3)-RIL, purified (NiNTA); not shown: Lip, N-terminal, kept
stoichiometry N [2]: 2 and 4

B2: Lip–DEP_(417-511) K446M (domain or fragment, human, UniProt O14641 417-511, looked up)
chain: B1 chain with K30M
notes: Dishevelled 2 (DVL2), human, DEP domain, residues 417-511, with K446M; source: E. coli BL21-CodonPlus(DE3)-RIL, purified (NiNTA)
stoichiometry N [3]: 4

B3: Lip–DEP_(417-511) I447T (domain or fragment, human, UniProt O14641 417-511, looked up)
chain: B1 chain with I31T
notes: Dishevelled 2 (DVL2), human, DEP domain, residues 417-511, with I447T; also called tetramerisation mutant; source: E. coli BL21-CodonPlus(DE3)-RIL, purified (NiNTA)
stoichiometry N [2]: 2

B4: Lip–DEP_(417-511) I447F (domain or fragment, human, UniProt O14641 417-511, looked up)
chain: B1 chain with I31F
notes: Dishevelled 2 (DVL2), human, DEP domain, residues 417-511, with I447F; also called tetramerisation mutant; source: E. coli BL21-CodonPlus(DE3)-RIL, purified (NiNTA)
stoichiometry N [2]: 2

B5: Lip–DEP_(417-511) I447M (domain or fragment, human, UniProt O14641 417-511, looked up)
chain: B1 chain with I31M
notes: Dishevelled 2 (DVL2), human, DEP domain, residues 417-511, with I447M; also called tetramerisation mutant; source: E. coli BL21-CodonPlus(DE3)-RIL, purified (NiNTA)
stoichiometry N [2]: 2

binding result [4]: binds
B6: C-terminal peptide from Dvl1 (DVL-C) (peptide)
peptide: SEFFVDVM
notes: C-terminal peptide of Dishevelled 1 (Dvl1); Lee et al., 2015; also called DVL-C peptide; source: kindly provided by Jie Zheng (University of California, Los Angeles)
